From patent US8058396B2, “Cystatin C as an antagonist of TGF-β and methods related thereto” (National Jewish Health, priority 2003, dated 2011)

Tests used:
TGF-β signaling = assay: p3TP-luciferase reporter gene assay in 3T3-L1 cells; format: cell-based, murine; conditions: expression in 3T3-L1 cells; TGF-β1 0-5 ng/ml; compared to control cells
Procedure: Analysis of luciferase activity driven by the synthetic p3TP reporter ((26); generously provided by Dr. Joan Massague, Sloan Kettering) was performed as described previously (42). Briefly, control, CystC-, or Δ14CystC-expressing 3T3-L1 or HT1080 cells were cultured onto 24-well plates at a density of 45,000 cells/well and allowed to adhere overnight. The cells were transiently transfected the following morning by overnight exposure to LT1 liposomes (Mirus) containing 300 ng/well p3TP-luciferase and 100 ng/well of pCMV-β-gal. Afterward, the cells were washed twice with PBS and stimulated overnight in serum-free media with increasing concentrations of TGF-β1 as indicated. The following morning, luciferase and β-gal activities contained in detergent-solubilized cell extracts were determined.
In some experiments, the effects of recombinant CystC and D14CystC on p3TP-luciferase activity 3T3-L1 cells was determined. […] All subsequent procedures were performed as described above.
The present inventor's findings that TGF-β signaling was inhibited by CystC (FIGS. 1 and 2) independent of its actions on cathepsin B lead them to hypothesize CystC as a general antagonist of TGF-β signaling. To test this hypothesis, changes in p3TP-driven luciferase activity were monitored in control, CystC-, Δ14CystC-expressing cells before and after their stimulation with TGF-β. Briefly, GFP-, CystC-, or Δ14CystC-expressing 3T3-L1 cells were transiently transfected with p3TP-luciferase and pCMV-β-gal, and subsequently stimulated with increasing concentrations of TGF-β1 (0-5 ng/ml) as indicated in FIG. 3A. Afterward, luciferase and β-gal activities contained in detergent-solubilized cell extracts were measured. […] Data are the mean (±SE) luciferase activities of four independent experiments normalized to untreated GFP-expressing cells.
The transfectants were then stimulated with TGF-β1 (5 ng/ml) in the absence or presence of recombinant (10 mg/ml) GST, GST-CystC, or GST-D14CystC as indicated in FIG. 3B. […]

NRK kidney fibroblasts [1] = assay: Soft agar assay, anchorage-independent growth of NRK cells; format: cell-based, rat; conditions: retroviral-mediated expression in NRK cells; TGF-β1 5 ng/ml; 7 d
Procedure: The growth of NRK cells in soft agar was performed according to the procedures described in (Moustakas et al., 1999). Briefly, duplicate cultures of control-, CystC-, or Δ14CystC-expressing NRK cells (10,000 cells/plate) were grown in 0.3% agar on a cushion of 0.6% agar in 35-mm plates. NRK cell growth in the absence or presence of TGF-β1 (5 ng/ml) was allowed to proceed for 7 d, whereupon the number of colonies formed was quantified under a light microscope.
(§1) This hypothesis was tested by infecting NRK cells with bicistronic retrovirus encoding either CystC or Δ14CystC to determine their effects on NRK anchorage-independent growth stimulated by TGF-β. Briefly, rat NRK kidney fibroblasts were infected with control (i.e., pMSCV-IRES-GFP), CystC, or Δ14CystC retroviral supernatants, and the resulting infected cells were isolated by GFP fluorescence on a MoFlo cell sorter 48 hours later. Control, CystC-, and Δ14CystC-expressing NRK cells were cultured in soft-agar in the absence or presence of TGF-β1 (5 ng/ml) for 7 d, whereupon NRK colony formation was quantified by light microscopy. In addition, control, CystC-, and Δ14CystC-expressing NRK cells were allowed to invade through Matrigel matrices in the absence or presence of TGF-β1 (5 ng/ml) for 48 hours.

NRK kidney fibroblasts [2] = assay: NRK cell invasion through Matrigel matrices; format: cell-based, rat; conditions: expression in NRK cells, 48 hours, p<0.05; for TGF-β-stimulated NRK cell invasion through synthetic basement membranes: TGF-β1 5 ng/ml
Procedure: as §1

3T3-L1 fibroblasts = assay: 3T3-L1 cell invasion through Matrigel matrices; format: cell-based, murine; conditions: retroviral expression in 3T3-L1 cells, 48 hr; for serum-stimulated (tonic) 3T3-L1 cell invasion: relative to GFP-expressing cells; for TGF-β1-stimulated 3T3-L1 cell invasion: TGF-β1 5 ng/ml, p<0.05
Procedure: The effect CystC and D14CystC on the invasion of HT1080 and 3T3-L1 cells was determined as described previously (42). Briefly, upper chambers were coated with 100 μl of diluted Matrigel (1:50 in serum-free media), which was allowed to evaporate to dryness overnight at room temperature. The following morning the Matrigel mixtures were rehydrated and subsequently cultured with control-, CystC-, or D14CystC-expressing HT1080 or 3T3-L1 cells at a density of 100,000 cells/chamber. Cellular invasion was stimulated by addition of 2% serum to the lower chambers. Forty-eight hr later, the cells were washed twice in ice-cold PBS and immediately fixed for 15 min with 95% ethanol. Cells remaining in the upper chambers were removed with a cotton swab, whereas those remaining in the lower chamber were stained with crystal violet. Quantifying invading cells was determined through two independent measures, which yielded identical results: (i) manual counting under a light microscope, and (ii) crystal violet dye extraction by incubation of the membranes in 10% acetic acid, followed by spectrophotometry at 590 nm.
In some experiments, the effects of recombinant CystC and D14CystC on 3T3-L1 cell invasion was examined. To do so, 3T3-L1 cells (100,000 cells/chamber) were allowed to invade through Matrigel […], together with or without 5 ng/ml of TGF-β1. All subsequent procedures were performed as described above.
GFP-, CystC-, or Δ14CystC-expressing 3T3-L1 cells were allowed to invade through Matrigel-coated filters in the absence or presence of TGF-β1 (5 ng/ml) for 48 hr, and the results are shown in FIG. 2A. […] Data are the mean (±SE) of four independent experiments presented as the percent invasion relative to GFP-expressing 3T3-L1 cells.
Moreover, the inhibitory effects of CystC on 3T3-L1 cell invasion could be recapitulated by addition of recombinant CystC fusion proteins. Control or TGF-β1-stimulated (5 ng/ml) 3T3-L1 cells were allowed to invade through Matrigel-coated filters for 48 hr in the absence or presence of recombinant (10 mg/ml) GST, GST-CystC, or GST-D14CystC as indicated in FIG. 2B. […] Data are the mean (±SE) of three independent experiments presented as the percent invasion relative to untreated 3T3-L1 cells. […] Collectively, these findings indicate that 3T3-L1 cell invasion proceeds through cathepsin B-dependent and TGF-β-dependent pathways.

HT1080 cells [3] = assay: Migration of HT1080 cells to fibronectin; format: cell-based, human; conditions: overexpression in HT1080 cells; data not shown
HT1080 cells [4] = assay: DNA synthesis in HT1080 cells; format: cell-based, human; conditions: overexpression in HT1080 cells; data not shown

B1: CystC: full-length human Cystatin C (SEQ ID NO:2), C-terminally Myc- and (His)6-tagged, retrovirally expressed and secreted by the cells (protein, listed as Homo sapiens)
chain: MAGPLRAPLLLLAILAVALAVSPAAGSSPGKPPRLVGGPMDASVEEEGVRRALDFAVGEYNKASNDMYHSRALQVVRARKQIVAGVNYFLDVELGRTTCTKTQPNLDNCPFHDQPHLKRKAFCSFQIYAVPWQGTMTLSKSTCQDA
modifications: C-terminal Myc and His6 tags
TGF-β signaling
  TGF-β-stimulated luciferase activity (p3TP): significantly reduced
NRK kidney fibroblasts [1]
  morphological transformation (soft agar colony formation) stimulated by TGF-β: completely prevented
NRK kidney fibroblasts [2]
  tonic NRK cell invasion: inhibited significantly
  TGF-β-stimulated NRK cell invasion through synthetic basement membranes: inhibited significantly
3T3-L1 fibroblasts
  serum-stimulated (tonic) 3T3-L1 cell invasion: inhibited significantly
  TGF-β1-stimulated 3T3-L1 cell invasion: significantly inhibited
HT1080 cells [3]
  migration of HT1080 cells to fibronectin: failed to effect
HT1080 cells [4]
  synthesis of DNA in HT1080 cells: failed to effect

B2: Δ14CystC: human CystC with deletion of positions 80 to 93 (conserved cysteine proteinase inhibitor motif), retrovirally expressed and secreted (protein)
chain: MAGPLRAPLLLLAILAVALAVSPAAGSSPGKPPRLVGGPMDASVEEEGVRRALDFAVGEYNKASNDMYHSRALQVVRARLGRTTCTKTQPNLDNCPFHDQPHLKRKAFCSFQIYAVPWQGTMTLSKSTCQDA
modifications: left off: small tags and cut ends
TGF-β signaling
  TGF-β-stimulated luciferase activity (p3TP): significantly reduced
NRK kidney fibroblasts [1]
  morphological transformation (soft agar colony formation) stimulated by TGF-β: completely prevented
NRK kidney fibroblasts [2]
  TGF-β-stimulated NRK cell invasion through synthetic basement membranes: inhibited significantly
3T3-L1 fibroblasts
  serum-stimulated (tonic) 3T3-L1 cell invasion: unaffected
  TGF-β1-stimulated 3T3-L1 cell invasion: significantly inhibited
HT1080 cells [3]
  migration of HT1080 cells to fibronectin: failed to effect
HT1080 cells [4]
  synthesis of DNA in HT1080 cells: failed to effect
